Test results: the supplement of paper PMC10065799, “High-throughput profiling of sequence recognition by tyrosine kinases and SH2 domains using bacterial peptide display” (eLife, 2023)

Biological target: Hck (UniProt P08631)
Assay: phosphorylation enrichment, bacterial display (enrichment ratio); higher = better substrate or ligand; peptides without Tyr show the background
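Note: 11-residue human phosphosite peptides and single-mutation variants displayed on the E. coli surface, counted by deep sequencing, each peptide's frequency after selection divided by its frequency in the unselected input library; frequency after pTyr selection over input frequency; kinase dosed for 20-30% of maximal phosphorylation in three min.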

Sequence of Hck (P08631 whole entry, looked up): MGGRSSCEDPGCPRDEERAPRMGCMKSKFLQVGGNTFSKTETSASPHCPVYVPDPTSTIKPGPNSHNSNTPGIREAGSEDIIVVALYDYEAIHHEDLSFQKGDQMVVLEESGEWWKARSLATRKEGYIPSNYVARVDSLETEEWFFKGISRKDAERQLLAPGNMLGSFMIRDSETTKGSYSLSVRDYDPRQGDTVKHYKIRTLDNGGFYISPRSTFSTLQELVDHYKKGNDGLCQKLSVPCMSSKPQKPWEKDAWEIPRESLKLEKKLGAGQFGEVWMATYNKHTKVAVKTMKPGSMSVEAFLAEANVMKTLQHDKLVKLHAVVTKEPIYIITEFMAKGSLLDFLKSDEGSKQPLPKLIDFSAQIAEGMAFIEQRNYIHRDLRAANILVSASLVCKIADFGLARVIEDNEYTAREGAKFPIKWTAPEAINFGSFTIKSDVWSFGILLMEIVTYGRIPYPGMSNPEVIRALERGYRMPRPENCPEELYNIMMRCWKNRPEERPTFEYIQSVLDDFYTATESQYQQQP

Sequence	phosphorylation enrichment
VVLEDYLDIKN [CLCNKB_Y138]	0.434
SPPPAFTPMSG [ERBB4_Y1056_Y1056F]	0.469
HSDYQYSQRSQ [PKP2_Y168]	0.353
VRQQVYKKVEE [HADHA_Y283]	0.387
FPHVIYARLWR [SMAD4_Y95]	5.38
HVSISYDIPLT [GAB1_Y307_P311L]	0.99
RELGEYPLAEY [ALDH1A3_Y492_A493P]	0.505
RLAQRYLIWEC [SCN5A_Y694]	0.679
EPFEVYRIVPE [IRF8_Y110_K108E_YF]	2.37
SFNNKYGMVAQ [APOB_Y276_K273N_YF]	0.422
QGCSIYKDYYR [PLA2G2D_Y82]	2.92
TTPGPYRSIYF [MPG_Y71]	0.662
PYRQWYESHYA [RPS8_Y113]	1.3
GMTRNYIIFIE [BCO2_Y294]	0.563
IKIMGSSIRTI [IDS_Y490_Y490S]	0.435
IKRIDYEFVEM [ADA_Y84_A83D]	0.477
LTNDRYVATLT [IL6ST_Y396_L397V]	0.394

Sequence	phosphorylation enrichment
GTCGGYCSVLG [RAB18_Y202_A198T]	0.388
VRFVDYVLFRS [FAM189B_Y361_S358F]	0.499
MALDRYVAICK [OR2B11_Y127]	0.51
MTKEQYIKMNQ [ARFGEF2_Y797_R802Q]	0.443
NIFSFYLSRDP [CTSD_Y232]	0.461
FGTAQYCCRMG [LRRK2_Y2023_I2020T_YF]	0.518
KKHFSYAWPFY [BRDT_Y291]	0.425
DGTGHYLGNAC [GATA5_Y208_C210G]	0.399
LSSNLYYRWLT [CNGA3_Y168_P163L]	15.2
MCDSHYLESRS [CLK1_Y56]	0.35
GGQEDYDRLRP [RAC3_Y64_A59G]	0.759
ECKASCPGKIT [PRSS3_Y232_Y232C]	0.351
LLKMMYLMLDN [STAT1_Y203_K201M]	0.644
NHFKIYNPCAE [PTEN_Y68_L70P_YF]	0.56
IKKFKYRIEEH [GJA1_Y137_G138R]	0.336
GRFSGYKSKHG [EPHA3_Y570_C568S]	0.361

Biological target: Jak2 (UniProt O60674)
Assay: as above

Sequence of Jak2 (O60674 whole entry, looked up): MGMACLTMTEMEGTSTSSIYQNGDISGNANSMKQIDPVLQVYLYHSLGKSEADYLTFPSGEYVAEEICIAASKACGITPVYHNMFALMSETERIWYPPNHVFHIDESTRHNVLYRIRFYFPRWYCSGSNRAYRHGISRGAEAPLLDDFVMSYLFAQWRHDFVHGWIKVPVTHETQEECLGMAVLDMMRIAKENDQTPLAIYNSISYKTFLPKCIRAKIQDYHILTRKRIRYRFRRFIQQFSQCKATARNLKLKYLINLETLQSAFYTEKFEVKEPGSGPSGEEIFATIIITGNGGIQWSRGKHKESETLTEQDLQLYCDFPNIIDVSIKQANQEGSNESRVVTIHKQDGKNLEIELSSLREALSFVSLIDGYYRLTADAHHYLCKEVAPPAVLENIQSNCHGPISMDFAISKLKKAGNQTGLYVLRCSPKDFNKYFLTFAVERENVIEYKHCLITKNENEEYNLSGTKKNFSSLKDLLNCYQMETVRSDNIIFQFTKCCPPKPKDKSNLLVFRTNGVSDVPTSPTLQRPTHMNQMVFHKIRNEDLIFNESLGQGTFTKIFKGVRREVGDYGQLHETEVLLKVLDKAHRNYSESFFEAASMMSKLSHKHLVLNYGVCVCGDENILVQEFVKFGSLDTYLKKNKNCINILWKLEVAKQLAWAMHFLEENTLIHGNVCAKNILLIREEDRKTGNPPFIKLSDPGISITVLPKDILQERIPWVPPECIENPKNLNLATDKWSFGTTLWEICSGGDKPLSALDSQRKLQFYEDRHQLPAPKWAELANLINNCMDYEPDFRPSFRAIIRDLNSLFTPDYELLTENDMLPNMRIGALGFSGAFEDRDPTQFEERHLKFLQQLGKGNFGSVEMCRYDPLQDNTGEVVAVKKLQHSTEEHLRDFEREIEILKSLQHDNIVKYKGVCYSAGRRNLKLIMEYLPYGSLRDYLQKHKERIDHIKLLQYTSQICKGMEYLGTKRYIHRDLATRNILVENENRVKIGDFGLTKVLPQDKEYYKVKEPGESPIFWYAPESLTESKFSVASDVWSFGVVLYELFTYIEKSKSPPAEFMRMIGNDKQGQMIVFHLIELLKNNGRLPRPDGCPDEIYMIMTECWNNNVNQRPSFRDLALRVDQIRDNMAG

Sequence	phosphorylation enrichment
VVLEDYLDIKN [CLCNKB_Y138]	1.07
SPPPAFTPMSG [ERBB4_Y1056_Y1056F]	0.496
HSDYQYSQRSQ [PKP2_Y168]	1.11
VRQQVYKKVEE [HADHA_Y283]	0.639
FPHVIYARLWR [SMAD4_Y95]	0.751
HVSISYDIPLT [GAB1_Y307_P311L]	1.86
RELGEYPLAEY [ALDH1A3_Y492_A493P]	1.97
RLAQRYLIWEC [SCN5A_Y694]	1.34
EPFEVYRIVPE [IRF8_Y110_K108E_YF]	0.882
SFNNKYGMVAQ [APOB_Y276_K273N_YF]	0.509
QGCSIYKDYYR [PLA2G2D_Y82]	1.08
TTPGPYRSIYF [MPG_Y71]	0.433
PYRQWYESHYA [RPS8_Y113]	1.37
GMTRNYIIFIE [BCO2_Y294]	0.885
IKIMGSSIRTI [IDS_Y490_Y490S]	0.492
IKRIDYEFVEM [ADA_Y84_A83D]	0.932
LTNDRYVATLT [IL6ST_Y396_L397V]	0.808

Sequence	phosphorylation enrichment
GTCGGYCSVLG [RAB18_Y202_A198T]	0.451
VRFVDYVLFRS [FAM189B_Y361_S358F]	1.01
MALDRYVAICK [OR2B11_Y127]	0.665
MTKEQYIKMNQ [ARFGEF2_Y797_R802Q]	0.706
NIFSFYLSRDP [CTSD_Y232]	0.951
FGTAQYCCRMG [LRRK2_Y2023_I2020T_YF]	0.515
KKHFSYAWPFY [BRDT_Y291]	0.647
DGTGHYLGNAC [GATA5_Y208_C210G]	0.548
LSSNLYYRWLT [CNGA3_Y168_P163L]	13.4
MCDSHYLESRS [CLK1_Y56]	0.618
GGQEDYDRLRP [RAC3_Y64_A59G]	0.861
ECKASCPGKIT [PRSS3_Y232_Y232C]	0.402
LLKMMYLMLDN [STAT1_Y203_K201M]	0.991
NHFKIYNPCAE [PTEN_Y68_L70P_YF]	0.807
IKKFKYRIEEH [GJA1_Y137_G138R]	0.717
GRFSGYKSKHG [EPHA3_Y570_C568S]	0.438

Biological target: MERTK (UniProt Q12866)
Assay: as above

Sequence of MERTK (Q12866 whole entry, looked up): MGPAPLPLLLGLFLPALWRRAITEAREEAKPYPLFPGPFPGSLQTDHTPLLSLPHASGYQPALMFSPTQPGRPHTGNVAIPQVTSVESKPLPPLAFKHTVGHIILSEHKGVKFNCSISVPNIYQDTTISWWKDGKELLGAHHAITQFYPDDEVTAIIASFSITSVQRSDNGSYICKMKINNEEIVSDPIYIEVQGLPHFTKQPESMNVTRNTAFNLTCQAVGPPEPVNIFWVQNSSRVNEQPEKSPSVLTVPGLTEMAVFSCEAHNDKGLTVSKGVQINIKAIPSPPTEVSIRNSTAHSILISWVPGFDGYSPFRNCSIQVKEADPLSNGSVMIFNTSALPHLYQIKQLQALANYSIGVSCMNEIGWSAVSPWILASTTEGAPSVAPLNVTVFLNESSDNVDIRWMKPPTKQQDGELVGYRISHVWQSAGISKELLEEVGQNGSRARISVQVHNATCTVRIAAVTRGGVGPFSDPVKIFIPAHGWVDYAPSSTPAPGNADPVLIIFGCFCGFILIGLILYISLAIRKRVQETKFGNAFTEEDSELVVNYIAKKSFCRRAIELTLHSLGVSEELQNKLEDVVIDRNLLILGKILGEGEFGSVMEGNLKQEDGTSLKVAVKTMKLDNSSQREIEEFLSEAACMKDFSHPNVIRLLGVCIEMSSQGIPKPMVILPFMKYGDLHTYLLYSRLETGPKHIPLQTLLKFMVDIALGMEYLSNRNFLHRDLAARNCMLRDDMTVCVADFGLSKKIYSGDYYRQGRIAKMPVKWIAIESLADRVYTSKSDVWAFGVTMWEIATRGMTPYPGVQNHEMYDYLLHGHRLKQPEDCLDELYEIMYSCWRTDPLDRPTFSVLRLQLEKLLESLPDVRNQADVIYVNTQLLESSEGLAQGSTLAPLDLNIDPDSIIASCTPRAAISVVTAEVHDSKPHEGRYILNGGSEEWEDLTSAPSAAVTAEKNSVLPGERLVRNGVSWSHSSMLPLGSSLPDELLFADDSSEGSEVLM

Sequence	phosphorylation enrichment
VVLEDYLDIKN [CLCNKB_Y138]	0.464
SPPPAFTPMSG [ERBB4_Y1056_Y1056F]	0.461
HSDYQYSQRSQ [PKP2_Y168]	0.501
VRQQVYKKVEE [HADHA_Y283]	0.346
FPHVIYARLWR [SMAD4_Y95]	1.5
HVSISYDIPLT [GAB1_Y307_P311L]	4.9
RELGEYPLAEY [ALDH1A3_Y492_A493P]	0.516
RLAQRYLIWEC [SCN5A_Y694]	0.609
EPFEVYRIVPE [IRF8_Y110_K108E_YF]	0.62
SFNNKYGMVAQ [APOB_Y276_K273N_YF]	0.431
QGCSIYKDYYR [PLA2G2D_Y82]	0.67
TTPGPYRSIYF [MPG_Y71]	0.422
PYRQWYESHYA [RPS8_Y113]	1.86
GMTRNYIIFIE [BCO2_Y294]	0.487
IKIMGSSIRTI [IDS_Y490_Y490S]	0.424
IKRIDYEFVEM [ADA_Y84_A83D]	0.375
LTNDRYVATLT [IL6ST_Y396_L397V]	0.622

Sequence	phosphorylation enrichment
GTCGGYCSVLG [RAB18_Y202_A198T]	0.527
VRFVDYVLFRS [FAM189B_Y361_S358F]	0.461
MALDRYVAICK [OR2B11_Y127]	0.411
MTKEQYIKMNQ [ARFGEF2_Y797_R802Q]	0.381
NIFSFYLSRDP [CTSD_Y232]	0.333
FGTAQYCCRMG [LRRK2_Y2023_I2020T_YF]	1.79
KKHFSYAWPFY [BRDT_Y291]	1.22
DGTGHYLGNAC [GATA5_Y208_C210G]	0.357
LSSNLYYRWLT [CNGA3_Y168_P163L]	20.4
MCDSHYLESRS [CLK1_Y56]	0.426
GGQEDYDRLRP [RAC3_Y64_A59G]	0.461
ECKASCPGKIT [PRSS3_Y232_Y232C]	0.468
LLKMMYLMLDN [STAT1_Y203_K201M]	0.597
NHFKIYNPCAE [PTEN_Y68_L70P_YF]	0.452
IKKFKYRIEEH [GJA1_Y137_G138R]	0.345
GRFSGYKSKHG [EPHA3_Y570_C568S]	0.397

System: c-Abl (mouse)
Assay: as above

Sequence	phosphorylation enrichment
VVLEDYLDIKN [CLCNKB_Y138]	0.576
SPPPAFTPMSG [ERBB4_Y1056_Y1056F]	0.45
HSDYQYSQRSQ [PKP2_Y168]	0.749
VRQQVYKKVEE [HADHA_Y283]	0.446
FPHVIYARLWR [SMAD4_Y95]	10.1
HVSISYDIPLT [GAB1_Y307_P311L]	1.96
RELGEYPLAEY [ALDH1A3_Y492_A493P]	1.17
RLAQRYLIWEC [SCN5A_Y694]	0.86
EPFEVYRIVPE [IRF8_Y110_K108E_YF]	0.798
SFNNKYGMVAQ [APOB_Y276_K273N_YF]	0.462
QGCSIYKDYYR [PLA2G2D_Y82]	0.731
TTPGPYRSIYF [MPG_Y71]	0.547
PYRQWYESHYA [RPS8_Y113]	1.19
GMTRNYIIFIE [BCO2_Y294]	0.49
IKIMGSSIRTI [IDS_Y490_Y490S]	0.526
IKRIDYEFVEM [ADA_Y84_A83D]	0.622
LTNDRYVATLT [IL6ST_Y396_L397V]	0.434

Sequence	phosphorylation enrichment
GTCGGYCSVLG [RAB18_Y202_A198T]	0.401
VRFVDYVLFRS [FAM189B_Y361_S358F]	0.764
MALDRYVAICK [OR2B11_Y127]	0.863
MTKEQYIKMNQ [ARFGEF2_Y797_R802Q]	0.665
NIFSFYLSRDP [CTSD_Y232]	0.619
FGTAQYCCRMG [LRRK2_Y2023_I2020T_YF]	1.28
KKHFSYAWPFY [BRDT_Y291]	0.493
DGTGHYLGNAC [GATA5_Y208_C210G]	0.554
LSSNLYYRWLT [CNGA3_Y168_P163L]	12.6
MCDSHYLESRS [CLK1_Y56]	0.493
GGQEDYDRLRP [RAC3_Y64_A59G]	0.616
ECKASCPGKIT [PRSS3_Y232_Y232C]	0.577
LLKMMYLMLDN [STAT1_Y203_K201M]	1.07
NHFKIYNPCAE [PTEN_Y68_L70P_YF]	0.809
IKKFKYRIEEH [GJA1_Y137_G138R]	0.449
GRFSGYKSKHG [EPHA3_Y570_C568S]	0.65
